Experimental findings from patent US20230203162A1 (NUMAB THERAPEUTICS, published 2023) are described below.

For orientation: Kd means the concentration at which binding is half-saturated. The EC50 is the concentration needed to bring the measured effect to its halfway point. What is called koff is the rate constant with which the complex falls apart. Broadly, the kon is a measure of how fast the partners come together.

Experiment [1] addresses T1, human recombinant CD3ε protein (Sino Biological) (human, UniProt P07766 23-126).
T1 construct: Bought protein; also called recombinant human CD3ε; human CD3ε
Kind of experiment: SPR, CD3ε amine-coupled to CM5, antibody injected. In general terms: Surface plasmon resonance follows binding to a sensor surface in real time, without labels.

Experiment [2] has as its target T2, plasma-membranous human MSLN on cell lines (H226, HPAC, H292, OVCAR-3, MeT-5A) (human, UniProt Q13421 296-598).
T2 construct: whole, on cells; also called human MSLN on H226 cells; mesothelin on target cells
The experiment can be described thus: flow cytometry on H226 cells, protein L-PE, 4PL fit. For orientation: A flow cytometer gives signals particle by particle.

For experiment [3], the target named is T2, plasma-membranous human MSLN on cell …. The experiment can be described thus: flow cytometry on Met-5A cells, protein L-PE, 4PL fit.
Experiment [4] has the same target. Kind of experiment: flow cytometry on OVCAR-3 cells, protein L-PE, 4PL fit.
In experiment [5] the target is human serum albumin (hSA, Sigma-Aldrich A3782) (human, UniProt P02768 25-609). The experiment can be described thus: SPR, hSA amine-coupled to CM5, antibody injected, pH 5.5, 1:1 Langmuir.
Experiment [6] concerns the target T3, recombinant human MSLN (purchased from Peprotech) (human, UniProt Q13421 296-598, limits assumed).
T3 construct: Bought protein; also called recombinant human mesothelin
The experiment can be described thus: SPR (Biacore T200), human MSLN; which of the two formats (MSLN immobilized / antibody captured) not given.

In experiment [7] the target is T2, plasma-membranous human MSLN on cell …. Kind of experiment: cell-based or functional assay.
The target of experiment [8] is soluble mesothelin (sMSLN). Kind of experiment: cell-based or functional assay.

B1: PRO2562 (MATCH4) (other)
chain 1: ALQMTQSPSSLSARVGDRVTIKCQASQSISNYLAWYQQKPGKPPKFLIYDASDLASGVPSRFSGSGSGRDFTLTISSLQPEDFATYYCQQVYDSNNVENVFGCGTKVTVLGGGGGSGGGGSGGGGSGGGGSQSQLVESGGGLVQPGGSLRLSCAVSGFSLSSYAMGWVRQAPGKCLEYIGYISKIGTTYYASWAKGRFTISKDNSKNTVYLQMNSLRAEDTAVYFCARGSSSGGYLDDGFDPWGQGTLVTVSSGGGGSGGGGSEVQLVESGGGLVQPGGSLRLSCAASGFSLSSYDMSWVRQAPGKGLAWIGASYASGPTYYASWAKGRFTISRDNSKNTVYLQMCSLRAEDTATYFCARGGWTGTSHSNIWGQGTLVTVSSGGGSGGGSGGGSGEVQLVESGGGLVQPGGSLRLSCAASGFSLSSYAMNWVRQAPGKCLEWIGHINAGDIAYYATWAKGRFTISRDNSKNTVYLQMNSLRAEDTAVYFCARGAGGFSTGPFKLWGQGTLVTVSS
chain 2: ALQMTQSPSSLSARVGDRVTIKCQASQSISNYLAWYQQKPGKPPKFLIYDASDLASGVPSRFSGSGSGRDFTLTISSLQPEDFATYYCQQVYDSNNVENVFGCGTKVTVLGGGGGSGGGGSGGGGSGGGGSQSQLVESGGGLVQPGGSLRLSCAVSGFSLSSYAMGWVRQAPGKCLEYIGYISKIGTTYYASWAKGRFTISKDNSKNTVYLQMNSLRAEDTAVYFCARGSSSGGYLDDGFDPWGQGTLVTVSSGGGGSGGGGSAFELTQSPSSLSASVGDRVTITCQASESINSRLAWYQQKPGQPPKLLIYDASDLTSGVPSRFSGSGSGTDFTLTISCLQPEDFATYYCQGYGGSSTTTFGCGTKLTVLGGGSGGSGGSGGSGDIQMTQSPSSLSASVGDRVTITCQSSQSVFSNNYLAWFQQKPGQSPKRLIYSASTLASGVPSRFSGSGSGTDFTLTISSLQPEDFATYYCLGSYACSSADCYVFGTGTKVTVLG
notes: Heterodimer
For the molecule B1, the values for the Kd in experiment [1], in experiment [5] and in experiment [6] were 6.45 nM, 6.45 nM and 1.39 nM, respectively. Also, the EC50 in experiment [2] turned out to be 0.447 nM; in experiment [3], 0.0877 nM; in experiment [4] it was 5.55 nM. For the same molecule, the entries for the “max. binding (MFI)” value in experiment [2], in experiment [3] and in experiment [4] were 609000 MFI, 12000 MFI and 148000 MFI, respectively. For the same molecule, the values for the koff in experiment [5] and in experiment [6] were 0.00149 s⁻¹ and 0.000571 s⁻¹, respectively. For the same molecule, the results for the kon in experiment [5] and in experiment [6] were 231000 M⁻¹ s⁻¹ and 410000 M⁻¹ s⁻¹, respectively.

B2: PRO2567 (MATCH4) (other)
chain 1: AFELTQSPSSLSASVGDRVTITCQASESINSRLAWYQQKPGQPPKLLIYDASDLTSGVPSRFSGSGSGTDFTLTISSLQPEDFATYYCQGYGGSSTTTFGTGTKLTVLGGGGGSGGGGSGGGGSGGGGSEVQLVESGGGLVQPGGSLRLSCAASGFSLSSYAMNWVRQAPGKGLEWIGHINAGDIAYYATWAKGRFTISRDNSKNTVYLQMNSLRAEDTAVYFCARGAGGFSTGPFKLWGQGTLVTVSSGGGGSGGGGSEVQLVESGGGLVQPGGSLRLSCAASGFSLSSYDMSWVRQAPGKGLAWIGASYASGPTYYASWAKGRFTISRDNSKNTVYLQMNSLRAEDTATYFCARGGWTGTSHSNIWGQGTLVTVSSGGGSGGGSGGGSGQSQLVESGGGLVQPGGSLRLSCAVSGFSLSSYAMGWVRQAPGKCLEYIGYISKIGTTYYASWAKGRFTISKDNSKNTVYLQMNSLRAEDTAVYFCARGSSSGGYLDDGFDPWGQGTLVTVSS
chain 2: ALQMTQSPSSLSARVGDRVTIKCQASQSISNYLAWYQQKPGKPPKFLIYDASDLASGVPSRFSGSGSGRDFTLTISSLQPEDFATYYCQQVYDSNNVENVFGCGTKVTVLGGGGGSGGGGSGGGGSGGGGSQSQLVESGGGLVQPGGSLRLSCAVSGFSLSSYAMGWVRQAPGKCLEYIGYISKIGTTYYASWAKGRFTISKDNSKNTVYLQMNSLRAEDTAVYFCARGSSSGGYLDDGFDPWGQGTLVTVSSGGGGSGGGGSALQMTQSPSSLSARVGDRVTIKCQASQSISNYLAWYQQKPGKPPKFLIYDASDLASGVPSRFSGSGSGRDFTLTISSLQPEDFATYYCQQVYDSNNVENVFGCGTKVTVLGGGSGGSDIQMTQSPSSLSASVGDRVTITCQSSQSVFSNNYLAWFQQKPGQSPKRLIYSASTLASGVPSRFSGSGSGTDFTLTISSLQPEDFATYYCLGSYACSSADCYVFGTGTKVTVLG
notes: Heterodimer
For B2, in experiment [7], the “Fold-diff Window (mean Met-5A EC50 / mean H226 EC50)” value was 28.5 fold; the “average mean H226 EC50, cell killing (LDH release)” value came to 0.00346 nM; the “average mean Met-5A EC50, cell killing (LDH release)” value was 0.0987 nM. For the same molecule, in experiment [8], the “Delta 0-50 ng/mL sMSLN (x-fold change in H226 killing potency)” value was 3.2 fold and the “Delta 0-500 ng/mL sMSLN (x-fold change in H226 killing potency)” value stood at 23.8 fold. Further, the Kd in experiment [1] came to 4.78 nM. Also, in experiment [2], the EC50 stood at 0.611 nM and the “max. binding (MFI)” value stood at 809000 MFI. In addition, in experiment [3], the EC50 was found to be 0.0824 nM and the “max. binding (MFI)” value was determined as 11200 MFI. Also, in experiment [4], a half-maximal effect (EC50) was put at 6.64 nM and the “max. binding (MFI)” value came to 170000 MFI. In experiment [5], this molecule yielded a Kd of 8.8 nM, a koff of 0.00453 s⁻¹ and an on-rate constant (kon) of 515000 M⁻¹ s⁻¹. In experiment [6], the Kd worked out at 1.41 nM, the koff was determined as 0.000578 s⁻¹ and the kon was found to be 411000 M⁻¹ s⁻¹.

B3: PRO2660 (MATCH4) (other)
chain 1: DIQMTQSPSSLSASVGDRVTITCQASESIYSSLAWYQQKPGKAPKLLIYLASTLASGVPSRFSGSGSGTDFTLTISSLQPEDFATYYCQSTDYTTSTHRNSFGTGTKVTVLGGGGGSGGGGSGGGGSGGGGSEVQLVESGGGLVQPGGSLRLSCAASGFSFSTTYYMCWVRQAPGKGLEWIGCTNTASSVRTYYATWAKGRFTISRDNSKNTVYLQMNSLRAEDTAVYYCARDMGFADYALNLWGQGTLVTVSSGGGGSGGGGSEVQLVESGGGLVQPGGSLRLSCAASGFSLSSYDMSWVRQAPGKGLAWIGASYASGPTYYASWAKGRFTISRDNSKNTVYLQMNSLRAEDTATYFCARGGWTGTSHSNIWGQGTLVTVSSGGGSGGGSGGGSGEVQLVESGGGLVQPGGSLRLSCAASGFSLSSYAMNWVRQAPGKCLEWIGHINAGDIAYYATWAKGRFTISRDNSKNTVYLQMNSLRAEDTAVYFCARGAGGFSTGPFKLWGQGTLVTVSS
chain 2: DIQMTQSPSSLSASVGDRVTITCQASESIYSSLAWYQQKPGKAPKLLIYLASTLASGVPSRFSGSGSGTDFTLTISSLQPEDFATYYCQSTDYTTSTHRNSFGTGTKVTVLGGGGGSGGGGSGGGGSGGGGSEVQLVESGGGLVQPGGSLRLSCAASGFSFSTTYYMCWVRQAPGKGLEWIGCTNTASSVRTYYATWAKGRFTISRDNSKNTVYLQMNSLRAEDTAVYYCARDMGFADYALNLWGQGTLVTVSSGGGGSGGGGSAFELTQSPSSLSASVGDRVTITCQASESINSRLAWYQQKPGQPPKLLIYDASDLTSGVPSRFSGSGSGTDFTLTISSLQPEDFATYYCQGYGGSSTTTFGCGTKLTVLGGGSGGSDIQMTQSPSSLSASVGDRVTITCQSSQSVFSNNYLAWFQQKPGQSPKRLIYSASTLASGVPSRFSGSGSGTDFTLTISSLQPEDFATYYCLGSYACSSADCYVFGTGTKVTVLG
notes: Heterodimer
As for B3, in experiment [7], the “Fold-diff Window (mean Met-5A EC50 / mean H226 EC50)” value was 1.7 fold; the “average mean H226 EC50, cell killing (LDH release)” value turned out to be 0.0285 nM; the “average mean Met-5A EC50, cell killing (LDH release)” value stood at 0.0485 nM. Moreover, in experiment [8], the “Delta 0-50 ng/mL sMSLN (x-fold change in H226 killing potency)” value was found to be 12 fold and the “Delta 0-500 ng/mL sMSLN (x-fold change in H226 killing potency)” value was found to be 85.1 fold. The Kd in experiment [1] was 5.71 nM. Besides, in experiment [2], a half-maximal effect (EC50) was put at 1.08 nM and the “max. binding (MFI)” value was 686000 MFI. Also, in experiment [3], the midpoint of the response, the EC50, lay at 0.157 nM and the “max. binding (MFI)” value stood at 14500 MFI. For the same molecule, in experiment [4], the EC50 was 10.7 nM and the “max. binding (MFI)” value worked out at 198000 MFI. Further, in experiment [5], the Kd stood at 5.71 nM, the koff came to 0.0016 s⁻¹ and the kon was 280000 M⁻¹ s⁻¹.
